This is an account of results in patent US20170355757A1 (Regeneron, published 2017).

For experiment [1], the target named is T1, Human C5 (human, UniProt P01031 19-1676).
T1 construct: The natural protein has a beta and an alpha chain; also called complement factor 5; complement component 5
As to the kind of experiment: SPR, mAb captured by anti-hFc, 25C. The procedure:
(§1) Equilibrium dissociation constants (KD values) for C5 binding to purified anti-C5 antibodies were determined using a real-time surface plasmon resonance biosensor assay on a Biacore T200 instrument. The Biacore sensor surface was derivatized by amine coupling with a monoclonal mouse anti-human Fc antibody (GE Healthcare, # BR-1008-39) to capture anti-C5 antibodies expressed with human Fc constant regions. Biacore binding studies were conducted in HBST running buffer (0.01M HEPES pH 7.4, 0.15M NaCl, 3 mM EDTA, 0.05% v/v Surfactant P20).
(§2) Human C5 was obtained from a commercial source (EMD). Other C5 reagents were expressed with a C-terminal myc-myc-hexahistidine tag (subsequently referred to as C5-mmh). […] Association of all the C5 reagents to each of the captured monoclonal antibodies was monitored for 3 minutes and their dissociation in HBST running buffer was monitored for 8 minutes. All the binding kinetics experiments were performed at either 25° C. or 37° C. Kinetic association (kₐ) and dissociation (kd) rate constants were determined by fitting the real-time sensorgrams to a 1:1 binding model using Scrubber 2.0c curve fitting software. Binding dissociation equilibrium constants (KD) and dissociative half-lives (t %) were calculated from the kinetic rate constants as: KD (M)=kd/kₐ and t_{1/2} (min)=In2/(60×kd)

Another experiment has as its target T2, monkey C5-mmh (monkey, UniProt P01031 19-1676 (human entry), limits assumed).
T2 construct: Expressed with a C-terminal myc-myc-hexahistidine tag
T2 chain: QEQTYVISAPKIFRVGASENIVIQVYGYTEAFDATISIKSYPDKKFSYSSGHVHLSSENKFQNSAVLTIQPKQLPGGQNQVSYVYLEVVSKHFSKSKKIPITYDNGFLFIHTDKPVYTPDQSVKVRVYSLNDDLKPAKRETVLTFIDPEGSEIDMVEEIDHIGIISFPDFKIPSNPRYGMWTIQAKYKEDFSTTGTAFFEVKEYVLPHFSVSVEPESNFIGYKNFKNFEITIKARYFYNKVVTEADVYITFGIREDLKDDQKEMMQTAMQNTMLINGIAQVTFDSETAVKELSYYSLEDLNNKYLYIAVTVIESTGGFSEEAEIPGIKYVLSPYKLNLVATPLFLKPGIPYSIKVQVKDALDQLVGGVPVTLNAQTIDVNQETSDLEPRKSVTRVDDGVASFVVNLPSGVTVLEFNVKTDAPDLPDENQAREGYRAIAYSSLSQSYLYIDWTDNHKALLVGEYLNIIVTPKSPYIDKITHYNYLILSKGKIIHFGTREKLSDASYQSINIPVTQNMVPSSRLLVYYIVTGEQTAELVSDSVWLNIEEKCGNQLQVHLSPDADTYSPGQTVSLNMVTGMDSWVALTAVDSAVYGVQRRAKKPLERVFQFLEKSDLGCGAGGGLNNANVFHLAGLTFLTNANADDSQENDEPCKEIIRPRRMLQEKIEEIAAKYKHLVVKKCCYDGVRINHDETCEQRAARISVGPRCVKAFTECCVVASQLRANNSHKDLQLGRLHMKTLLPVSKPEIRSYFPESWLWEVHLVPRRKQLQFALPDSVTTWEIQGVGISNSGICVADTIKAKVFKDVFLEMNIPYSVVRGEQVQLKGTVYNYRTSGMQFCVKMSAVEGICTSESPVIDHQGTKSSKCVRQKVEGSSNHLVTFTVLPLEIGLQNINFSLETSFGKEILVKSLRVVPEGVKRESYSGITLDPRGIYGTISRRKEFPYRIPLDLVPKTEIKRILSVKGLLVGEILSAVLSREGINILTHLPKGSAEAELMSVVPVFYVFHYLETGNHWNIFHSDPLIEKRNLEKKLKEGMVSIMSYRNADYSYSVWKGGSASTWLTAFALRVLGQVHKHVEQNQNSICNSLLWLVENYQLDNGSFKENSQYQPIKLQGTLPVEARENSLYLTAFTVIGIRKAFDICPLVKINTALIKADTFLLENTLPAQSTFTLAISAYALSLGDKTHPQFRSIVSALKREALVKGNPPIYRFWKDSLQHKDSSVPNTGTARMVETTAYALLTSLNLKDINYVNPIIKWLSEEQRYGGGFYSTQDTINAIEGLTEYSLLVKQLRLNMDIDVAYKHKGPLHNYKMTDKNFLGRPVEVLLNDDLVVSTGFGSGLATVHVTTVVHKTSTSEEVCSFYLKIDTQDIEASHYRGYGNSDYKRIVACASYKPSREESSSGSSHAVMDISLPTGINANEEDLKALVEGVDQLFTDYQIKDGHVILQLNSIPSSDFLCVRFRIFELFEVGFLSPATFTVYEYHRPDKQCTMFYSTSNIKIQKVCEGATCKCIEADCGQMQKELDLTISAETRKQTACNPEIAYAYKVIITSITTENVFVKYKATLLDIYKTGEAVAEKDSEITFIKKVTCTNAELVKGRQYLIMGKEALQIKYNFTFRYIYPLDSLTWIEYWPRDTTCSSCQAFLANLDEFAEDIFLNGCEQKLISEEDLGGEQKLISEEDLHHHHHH
The experiment in a line: SPR, mAb captured by anti-hFc, 25C. How it is done:
as §1, §2

In experiment [2] the target is T1, Human C5. As to the kind of experiment: SPR, mAb captured by anti-hFc, 37C. How it is done:
as §1, §2

B1: H4H12170P (antibody, human IgG4, V domains shown)
VH: QVQLVESGGGVVQPGRSLRLSCAASGFTFSGYGMHWVRQAPGKGLEWVALIWLDGSNDYYADSVKGRFTISRDNSKNTLYLQMNRLRAEDTAVYYCARDGPVAAIPDYWGQGTLVTVSS
VL: DIQMTQSPSTLSASVGDRVTITCRASQSISRWLAWYQLKPGKAPKLLIYKASSLESGVPSRFSGSGSGTDFTLTISSLQPDDFATYYCQQYNTYSYTFGQGTKLEIK
As for B1, in the experiment with Human C5 [1], the “100 nM Human C5 Bound (RU)” value was 119 RU, the Kd was found to be 0.129 nM, the koff turned out to be 6.79e-05 s⁻¹ and the kon came out at 525000 M⁻¹ s⁻¹. The molecule further returned a t½ with Human C5 [1] of 170 min. Moreover, in the experiment with monkey C5-mmh, the “100 nM monkey C5-mmh Bound (RU)” value was 92 RU, the Kd is 0.199 nM, the koff was determined as 5.21e-05 s⁻¹ and the kon came out at 262000 M⁻¹ s⁻¹. The “t1/2” value with monkey C5-mmh was found to be 222 min. For the same molecule, in the experiment with Human C5 [2], the “100 nM Human C5 Bound (RU)” value was 55 RU, binding was put at a Kd of 1.4 nM, the koff stood at 0.000415 s⁻¹ and the kon turned out to be 297000 M⁻¹ s⁻¹. The t½ with Human C5 [2] stood at 28 min.

B2: H4H11686N (antibody, human IgG4, V domains shown)
VH: QVQLVESGGGLVKPGGSLRLSCAASGFTFSDYYMSWIRQAPGKGLEWVSYISSSGNTIKYADSMKGRFTISRDNAKKSLFVEMNSLRAEDTAVYYCARYKSSSDYFDHWGQGTLVTVSS
VL: EIVLTQSPATLSLSPGERATLSCRASQSVRSYLAWYQQKPGQAPRLLIYDASNRATAIPARFSGSGSGTDFTLTISSLEPEDLAVYYCQQSGNWPLTFGGGTKVEIK
notes: also called H2M11686N
B2: in the experiment with Human C5 [1], the “100 nM Human C5 Bound (RU)” value was 341 RU, the Kd came out at 0.15 nM, the koff turned out to be 3.31e-05 s⁻¹ and the kon is 220000 M⁻¹ s⁻¹. Moreover, in the experiment with Human C5 [1], the t½ turned out to be 349 min. For the same molecule, in the experiment with monkey C5-mmh, the “100 nM monkey C5-mmh Bound (RU)” value is 247 RU, the Kd was found to be 3.11 nM, the koff was 0.000489 s⁻¹ and the kon is 157000 M⁻¹ s⁻¹. In the experiment with monkey C5-mmh, the “t1/2” value was found to be 24 min. In the experiment with Human C5 [2], the “100 nM Human C5 Bound (RU)” value was found to be 406 RU, binding was characterised by a dissociation constant (Kd) of 0.469 nM, the koff is 0.000156 s⁻¹ and the kon was found to be 333000 M⁻¹ s⁻¹. The molecule also returned a t½ in the experiment with Human C5 [2] of 74 min.

B3: H4H12183P2 (antibody, human IgG4, V domains shown)
VH: QVQLQESGPALVKPSQTLSLTCTVSGGSIIRGSTYWSWVRQFPGKGLEWIGYSYYSGTAYYNPSLESRATISVDTSKNQFSLNLKSVTAADTAVYYCTREIGVAGLFDIWGQGTLVTVSS
VL: not shown
For B3, in the experiment with Human C5 [1], the “100 nM Human C5 Bound (RU)” value is 50 RU, binding was put at a Kd of 0.163 nM, the koff is 2.7e-05 s⁻¹ and the kon was found to be 166000 M⁻¹ s⁻¹. Moreover, in the experiment with Human C5 [1], the t½ amounted to 427 min. In the experiment with monkey C5-mmh, the “100 nM monkey C5-mmh Bound (RU)” value amounted to 23 RU, the Kd stood at 10.1 nM, the koff was 0.000494 s⁻¹ and the on-rate constant (kon) came to 48800 M⁻¹ s⁻¹. Moreover, the “t1/2” value with monkey C5-mmh amounted to 23 min. In the experiment with Human C5 [2], the “100 nM Human C5 Bound (RU)” value came out at 30 RU, binding was put at a Kd of 5.81 nM, the koff was determined as 0.00025 s⁻¹ and the kon worked out at 43000 M⁻¹ s⁻¹. In the experiment with Human C5 [2], this molecule returned a t½ of 46 min.

B4: H4H12169P (antibody, human IgG4, V domains shown)
VH: EVQLVESGGGLAQPGGSLRLSCAASGFTFRSYAMSWVRQAPGKGPEWVSGIGGNGVTTYYADSVKGRFTISRDNSKNTLFLQMNSLRAEDTAVYYCVQGGLGGYFTGYWGQGTLVTVSS
VL: DIQMTQSPSSLSASVGDRVTITCRASQSISTYLNWYQQNPGKAPKLLIFDASSLQSGVPSRFSGSGSGTDFTLTIRGLQPEDFATYYCQQSYSAPLTFGGGTKVEIK
For the molecule B4, in the experiment with Human C5 [1], the “100 nM Human C5 Bound (RU)” value turned out to be 18 RU, the Kd stood at 1.96 nM, the koff came to 0.00044 s⁻¹ and the kon is 224000 M⁻¹ s⁻¹. In the experiment with Human C5 [1], this molecule registered a t½ of 26 min. Besides, in the experiment with monkey C5-mmh, the “100 nM monkey C5-mmh Bound (RU)” value is 22 RU, binding was put at a Kd of 27.8 nM, the koff came to 0.00455 s⁻¹ and the association rate constant (kon) amounted to 164000 M⁻¹ s⁻¹. The “t1/2” value in the experiment with monkey C5-mmh came to 3 min. Further, in the experiment with Human C5 [2], the “100 nM Human C5 Bound (RU)” value is 65 RU, the Kd was determined as 3.06 nM, the koff amounted to 0.000352 s⁻¹ and the kon was found to be 115000 M⁻¹ s⁻¹. In addition, the t½ with Human C5 [2] turned out to be 33 min.

B5: H4H12168P (antibody, human IgG4, V domains shown)
VH: QVQLVESGGGVVQPGGSLRLSCAASGFTFGGHAMHWVRQAPGKGLEWLAVISSDGSNKQYADSVKGRFTISRDNPKNTLYLQMNSLRVGDTAIYYCAKEVAPRYYYYGLDVWGQGTTVTVSS
VL: DIQMTQSPSSLSASVGDRVTITCRASQDISNFLAWYQQKPGKVPKLLIYTASTLQSGVPSRFSGSGSGTDFTLTVSSLQPEDVATYYCQKYAGALTFGPGTKVDIK
In the case of B5, in the experiment with Human C5 [1], the “100 nM Human C5 Bound (RU)” value turned out to be 113 RU, binding was put at a Kd of 0.112 nM, the koff is 4.75e-05 s⁻¹ and the kon stood at 423000 M⁻¹ s⁻¹. Moreover, in the experiment with Human C5 [1], the t½ is 243 min. For the same molecule, in the experiment with monkey C5-mmh, the “100 nM monkey C5-mmh Bound (RU)” value came to 86 RU; the affinity, expressed as Kd, was 0.66 nM; the koff was 0.000114 s⁻¹; the kon stood at 173000 M⁻¹ s⁻¹. The “t1/2” value with monkey C5-mmh was found to be 101 min. Besides, in the experiment with Human C5 [2], the “100 nM Human C5 Bound (RU)” value was determined as 12 RU, binding was characterised by a dissociation constant (Kd) of 18.5 nM, the koff came out at 0.000464 s⁻¹ and the kon worked out at 25000 M⁻¹ s⁻¹. The molecule further came in with a t½ in the experiment with Human C5 [2] of 25 min.

B6: H4H12177P2 (antibody, human IgG4, V domains shown)
VH: EVQLVESGGGVVQRGESLRLSCSASDFIFKDYAMYWVRQIPGKGLEWISLISGDGDTTWYGDSVKGRFTISRDNNENSLFLQMNDLRTEDTAMYYCARDMGWNFFQLQYWGQGTLVTVSS
VL: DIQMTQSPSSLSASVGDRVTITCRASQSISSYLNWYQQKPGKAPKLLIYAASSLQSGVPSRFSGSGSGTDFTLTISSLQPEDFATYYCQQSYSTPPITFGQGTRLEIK
B6: in the experiment with Human C5 [1], the “100 nM Human C5 Bound (RU)” value was determined as 60 RU; the affinity, expressed as Kd, was 0.959 nM; the dissociation rate constant (koff) came to 6.29e-05 s⁻¹; the kon was determined as 65600 M⁻¹ s⁻¹. For the same molecule, the t½ in the experiment with Human C5 [1] turned out to be 184 min. In addition, in the experiment with monkey C5-mmh, the “100 nM monkey C5-mmh Bound (RU)” value turned out to be 32 RU, the Kd worked out at 21.5 nM, the koff came out at 0.000992 s⁻¹ and the kon was 46200 M⁻¹ s⁻¹. For the same molecule, the “t1/2” value with monkey C5-mmh came to 12 min. For the same molecule, in the experiment with Human C5 [2], the “100 nM Human C5 Bound (RU)” value came out at 37 RU, the Kd was 13.1 nM, the koff came to 0.000578 s⁻¹ and the kon turned out to be 44200 M⁻¹ s⁻¹. Moreover, the t½ with Human C5 [2] was 20 min.
